T1: cFΦR4-PCP (not fully specified)
T1 chain: FXRRRRQXDEXLI

T2: peptide 7 (Table 10)
T2 chain: RRRRRRRRRDXXDX

T3: peptide 6 (Table 10)
T3 chain: RRRRXFDXXD

T4: R9-PCP
T4 chain: RRRRRRRRRXDEXLI

T5: Antp-PCP
T5 chain: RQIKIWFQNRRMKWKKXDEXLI

B1: PTPRC (protein)
chain: YKIYDLHKKRSCNLDEQQELVERDDEKQLMNVEPIHADILLETYKRKIADEGRLFLAEFQSIPRVFSKFPIKEARKPFNQNKNRYVDILPYDYNRVELSEINGDAGSNYINASYIDGFKEPRKYIAAQGPRDETVDDFWRMIWEQKATVIVMVTRCEEGNRNKCAEYWPSMEEGTRAFGDVVVKINQHKRCPDYIIQKLNIVNKKEKATGREVTHIQFTSWPDHGVPEDPHLLLKLRRRVNAFSNFFSGPIVVHCSAGVGRTGTYIGIDAMLEGLEAENKVDVYGYVVKLRRQRCLMVQVEAQYILIHQALVEYNQFGETEVNLSELHPYLHNMKKRDPPSEPSPLEAEFQRLPSYRSWRTQHIGNQEENKSKNRNSNVIPYDYNRVPLKHELEMSKESEHDSDESSDDDSDSEEPSKYINASFIMSYWKPEVMIAAQGPLKETIGDFWQMIFQRKVKVIVMLTELKHGDQEICAQYWGEGKQTYGDIEVDLKDTDKSSTYTLRVFELRHSKRKDSRTVYQYQYTNWSVEQLPAEPKELISMIQVVKQKLPQKNSSEGNKHHKSTPLLIHCRDGSQQTGIFCALLNLLESAETEEVVDIFQVVKALRKARPGMVSTFEQYQFLYDVIASTYPAQNGQVKKNNHQEDKIEFDNEVDKVKQDANCVNPLGAPEKLPEAKEQAEGSEPTSGTEGPEHSVNGPASPALNQGS
B2: PTP1B (protein)
chain: MEMEKEFEQIDKSGSWAAIYQDIRHEASDFPCRVAKLPKNKNRNRYRDVSPFDHSRIKLHQEDNDYINASLIKMEEAQRSYILTQGPLPNTCGHFWEMVWEQKSRGVVMLNRVMEKGSLKCAQYWPQKEEKEMIFEDTNLKLTLISEDIKSYYTVRQLELENLTTQETREILHFHYTTWPDFGVPESPASFLNFLFKVRESGSLSPEHGPVVVHCSAGIGRSGTFCLADTCLLLMDKRKDPSSVDIKKVLLEMRKFRMGLIQTADQLRFSYLAVIEGAKFIMGDSSVQDQWKELSHEDLEPPPEHIPPPPRPPKRILEPHN
B3: TCPTP (protein)
chain: MPTTIEREFEELDTQRRWQPLYLEIRNESHDYPHRVAKFPENRNRNRYRDVSPYDHSRVKLQNAENDYINASLVDIEEAQRSYILTQGPLPNTCCHFWLMVWQQKTKAVVMLNRIVEKESVKCAQYWPTDDQEMLFKETGFSVKLLSEDVKSYYTVHLLQLENINSGETRTISHFHYTTWPDFGVPESPASFLNFLFKVRESGSLNPDHGPAVIHCSAGIGRSGTFSLVDTCLVLMEKGDDINIKQVLLNMRKYRMGLIQTPDQLRFSYMAIIEGAKCIKGDSSIQKRWKELSKEDLSPAFDHSPNKIMTEKYN
B4: SHP2 (protein)
chain: AETTDKVKQGFWEEFETLQQQECKLLYSRKEGQRQENKNKNRYKNILPFDHTRVVLHDGDPNEPVSDYINANIIMPEFETKCNNSKPKKSYIATQGCLQNTVNDFWRMVFQENSRVIVMTTKEVERGKSKCVKYWPDEYALKEYGVMRVRNVKESAAHDYTLRELKLSKVGQGNTERTVWQYHFRTWPDHGVPSDPGGVLDFLEEVHHKQESIMDAGPVVVHCSAGIGRTGTFIVIDILIDIIREKGVDCDIDVPKTIQMVRSQRSGMVQTEAQYRFIYMAVQHYIETLQRRI
B5: VHR (protein)
chain: MSGSFELSVQDLNDLLSDGSGCYSLPSQPCNEVTPRIYVGNASVAQDIPKLQKLGITHVLNAAEGRSFMHVNTNANFYKDSGITYLGIKANDTQEFNLSAYFERAADFIDQALAQKNGRVLVHCREGYSRSPTLVIAYLMMRQKMDVKSALSIVRQNREIGPNDGFLAQLCQLNDRLAKEGKLKP
B6: Caspase-3, Human, recombinant protein (protein)
chain: SGISLDNSYKMDYPEMGLCIIINNKNFHKSTGMTSRSGTDVDAANLRETFRNLKYEVRNKNDLTREEIVELMRDVSKEDHSKRSSFVCVLLSHGEEGIIFGTNGPVDLKKITNFFRGDRCRSLTGKPKLFIIQACRGTELDCGIETDSGVDDDMACHKIPVEADFLYAYSTAPGYYSWRNSKDGSWFIQSLCAMLKQYADKLEFMHILTRVNRKVATEFESFSFDATFHAKKQIPCIVSMLTKELYFYH

Biological target: T1, cFΦR4-PCP

Point of comparison: B5, kcat/KM (dephosphorylation of pCAP peptide) 2460 M⁻¹ s⁻¹. Against it:
- B1 — higher, 35100 M⁻¹ s⁻¹
- B2 — higher, 37100 M⁻¹ s⁻¹
- B3 — higher, 2780 M⁻¹ s⁻¹
- B4 — higher, 7400 M⁻¹ s⁻¹

Biological target: T2, peptide 7 (Table 10)

For B6, the “decrease of substrate activity relative to peptide 3” value was “decreased its activity by 53% and 72%, respectively, relative to peptide 3”.

Biological target: T3, peptide 6 (Table 10)

With B6 the “decrease of substrate activity relative to peptide 3” value was “decreased its activity by 53% and 72%, respectively, relative to peptide 3”.

Biological target: T4, R9-PCP

Point of comparison: B4, kcat/KM (dephosphorylation of pCAP peptide) 248 M⁻¹ s⁻¹. Against it:
- B1 — higher, 2940 M⁻¹ s⁻¹
- B2 — higher, 14700 M⁻¹ s⁻¹
- B3 — higher, 457 M⁻¹ s⁻¹
- B5 — higher, 6240 M⁻¹ s⁻¹

Biological target: T5, Antp-PCP

Point of comparison: B1, kcat/KM (dephosphorylation of pCAP peptide) 22300 M⁻¹ s⁻¹. Against it:
- B2 — lower, 17400 M⁻¹ s⁻¹
- B3 — lower, 970 M⁻¹ s⁻¹
- B4 — lower, 2210 M⁻¹ s⁻¹
- B5 — lower, 2030 M⁻¹ s⁻¹
